# B1: MIT1 (protein)
# chain: AVITGACERDLQCGKGTCCAVSLWIKSVRVCTPVGTSGEDCHPASHKIPFSGQRMHHTCPCAPNLACVQTSPKKFKCLSK
# B2: human type Bv8: Human type Bv8 mature peptide (81 amino acid residues, SEQ ID NO: 19) produced in Escherichia coli, … EXAMPLE 1 (protein)
# chain: AVITGACDKDSQCGGGMCCAVSIWVKSIRICTPMGKLGDSCHPLTRKVPFFGRRMHHTCPCLPGLACLRTSFNRFICLAQ
# B3: human type Bv8 peptide: Human type Bv8 purified from CHO cell culture supernatant (EXAMPLE 3); C-terminal Lys-deficient mature peptide, SEQ ID NO: 22 (protein)
# chain: B2 chain
# modifications: Human
# Legend:
# [1] = molecular target: human type I5E receptor protein (human) (UniProt Q8NFJ6); test: cell-based or functional assay; settings: scale: times lower level than human type Bv8 peptide
# Chain of human type I5E receptor protein (human) (Q8NFJ6 whole entry): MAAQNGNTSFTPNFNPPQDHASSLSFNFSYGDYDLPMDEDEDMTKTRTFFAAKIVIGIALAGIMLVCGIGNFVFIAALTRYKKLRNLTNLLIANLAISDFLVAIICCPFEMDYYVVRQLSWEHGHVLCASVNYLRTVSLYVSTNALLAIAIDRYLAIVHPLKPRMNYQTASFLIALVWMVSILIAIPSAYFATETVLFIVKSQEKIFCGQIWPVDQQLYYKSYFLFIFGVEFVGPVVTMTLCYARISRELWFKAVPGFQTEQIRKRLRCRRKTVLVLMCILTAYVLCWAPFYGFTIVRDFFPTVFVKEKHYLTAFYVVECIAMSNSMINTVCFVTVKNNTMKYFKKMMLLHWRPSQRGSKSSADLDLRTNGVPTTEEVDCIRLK
# [2] = tested on: guinea pig ileum; test: Experiment on contraction using specimen removed from guinea pig ileum; settings: for EC50: guinea pig ileum specimen, contraction induced by 1 μM acetylcholine taken as 100%, accumulative administration, read-out: EC50 of contraction response calculated from the dose-response curve
# Method: Guinea pigs (std: Hartley, 7-8 weeks old, male, weighing about 450 g) weres bled to death by cutting the carotid artery and laparotomized to remove the ileum. The ileum was placed on a glass Petri dish charged with Tyrode solution (composition: 138 mM NaCl, 2.7 mM KCl, 1.8 mM CaCl2, 0.5 mM MgCl2, 1.1 mM NaH2PO4, 11.9 mM NaHCO3 and 5.6 mM glucose), which was bubbled with 95% O2-5% CO2 gas. After connective tissues or fat pieces adhered to the ileum were removed with scissors for surgery and tweezers, the ileum was cut into a size of about 1.5 cm long, which was used as specimen. The specimen was suspended in an organ bath (20 ml) filled with the Tyrode solution maintained at 37° C. and a load of 0.5 g was applied over 30 minutes or longer to stabilize the specimen. Contraction response of the ileum specimen was measured using AMPLIFIER CASE 7747 of NEC Sanei. After determination of the maximum contraction by administration of 1 μM acetylcholine, purified human type Bv8 peptide obtained by the method of REFERENCE EXAMPLE 1 with a modification or snake venom MIT1 was accumulatively administered to assay the contraction response. For dilution of human type Bv8 and MIT1, physiological saline containing 0.05% bovine serum albumin was employed.
# The contraction response induced by human type Bv8 and MIT1 was shown by percentage, taking the contraction induced by 1 μM acetylcholine as 100%.
# [3] = tested on: ileum, distal colon, proximal colon; settings: cited from earlier work
# [4] = molecular target: T1, I5E receptor (Homo sapiens, UniProt Q8NFJ6); test: Assay for the I5E receptor activating activity (intracellular Ca ion level increasing activity using FLIPR); assay type: cell-based; settings: I5E receptor expression CHO cells
# T1 construct: expressed in transfected cells; host or cells: CHO/dhfr- cells, clone No. 4 (I5E-4 cells), vector pAKKO1.11
# T1 sequence (Q8NFJ6 whole entry): as above
# Source text: Human I5E receptor cDNA (SEQ ID NO: 6) was cloned by PCR publicly known and incorporated into pAKKO1.11 expression vector. The expression vector was transfected to CHO/dhfr^− cells (American Type Culture Collection) by the method described in (2-1). About 20 colonies of the transfected CHO cells, which grew in 8 to 10 days after the initiation of culture, were selected. The selected cells were inoculated on a 96-well plate in 3×10^4 cells/well, and the reactivity on snake venom MIT1 (SEQ ID NO: 21) was examined by the test method described in (2-3) described hereinafter. No. 4 clone of the 15E-expressing CHO cells showing a good reactivity was selected (hereinafter abbreviated as 15E-4 cells).
# The ZAQC-B1 obtained in (2-1) above and the 15E-4 cells obtained in (2-2) above were suspended in a medium (10% d FBS-DMEM), respectively, in 15×10^4 cells/ml and an aliquot of 200 μl was inoculated on a 96-well plate for FLIPR (Black plate clear bottom, Coster, Inc.) using a dispenser (3.0×10^4 cells/200 μl/well). After culturing overnight in a 5% CO2 incubator at 37° C., it was provided for use (hereinafter which was made a cell plate). […] By assaying a change in fluorescence intensity with passage of time, the intracellular Ca ion level increasing activity was measured. […]
# [5] = tested on: PI-3 kinase; settings: cited from earlier work
# [6] = molecular target: T2, ZAQ receptor (Homo sapiens, UniProt Q8TCW9); test: Assay for the ZAQ receptor activating activity (intracellular Ca ion level increasing activity using FLIPR); assay type: cell-based
# T2 construct: expressed in transfected cells; host or cells: CHO/dhfr- cells, clone ZAQC-B1 (plasmid pAK-ZAQC)
# T2 sequence (Q8TCW9 whole entry): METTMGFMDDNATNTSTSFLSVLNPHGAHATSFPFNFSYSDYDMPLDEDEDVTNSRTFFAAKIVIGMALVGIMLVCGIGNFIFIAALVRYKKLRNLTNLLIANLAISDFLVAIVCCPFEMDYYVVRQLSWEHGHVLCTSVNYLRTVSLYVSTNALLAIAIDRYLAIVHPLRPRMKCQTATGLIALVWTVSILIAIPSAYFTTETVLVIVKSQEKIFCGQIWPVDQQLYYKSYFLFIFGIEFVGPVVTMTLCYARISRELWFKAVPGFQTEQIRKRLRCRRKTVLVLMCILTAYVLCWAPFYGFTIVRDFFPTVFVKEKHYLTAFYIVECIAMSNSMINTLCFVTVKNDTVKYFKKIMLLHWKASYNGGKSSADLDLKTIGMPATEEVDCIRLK
# Method: The ZAQC-B1 obtained in (2-1) above and the 15E-4 cells obtained in (2-2) above were suspended in a medium (10% d FBS-DMEM), respectively, in 15×10^4 cells/ml and an aliquot of 200 μl was inoculated on a 96-well plate for FLIPR (Black plate clear bottom, Coster, Inc.) using a dispenser (3.0×10^4 cells/200 μl/well). After culturing overnight in a 5% CO2 incubator at 37° C., it was provided for use (hereinafter which was made a cell plate). Twenty milliliters of H/HBSS (9.8 g of Nissui Hanks 2 (Nissui Seiyaku Co., Ltd.), 0.35 g of sodium hydrogencarbonate and 4.77 g of HEPES; the pH was adjusted to 7.4 with 6 M sodium hydroxide solution followed by filter sterilization), 200 μl of 250 mM Probenecid and 200 μl of fetal bovine serum (FBS) were mixed. Also, 2 vials (50 μg) of Fluo 3-AM (Dojin Kagaku Kenkyusho) were dissolved in 40 μl of dimethylsulfoxide and 40 μl of 20% Pluronic acid (Molecular Probes Co., Ltd.). The solution was added to H/HBSS-Probenecid-FBS described above. After thoroughly mixing them, an aliquot of 100 μl was added to the medium-removed cell plate using an 8-channel pipette, followed by incubation in a 5% CO2 incubator at 37° C. for an hour (dye loading). […] By assaying a change in fluorescence intensity with passage of time, the intracellular Ca ion level increasing activity was measured. […]
# [7] = tested on: MAP kinase; settings: cited from earlier work
molecule,measurement,setting,value
snake venom Mamba Intestinal Toxin 1 (from UniProt P25687 1-80) (ligand),"I5E receptor activating activity (intracellular calcium level, FLIPR)",[1],10
B1,EC50,[2],0.4 nM
same,degree of contraction/relaxation,[3]; compared with potassium chloride,as potent as comparable to 40 mM potassium chloride
same,contraction or relaxation of intestinal tract,"[3]; ileum, distal colon, proximal colon","induced contraction in the ileum or distal colon, or relaxation in the proximal colon"
same,"level from which I5E receptor activating activity is exhibited, lower than that of human type Bv8 peptide",[4]; relative to human type Bv8 peptide,about 10 times
B2,intestinal tract contractile activity,[2]; as described in EXAMPLES,has an intestinal tract contractile activity
same,EC50,[2],0.57 nM
same,PI-3 kinase activation,[5],activates
same,"intracellular Ca ion level increasing activity using FLIPR, compared with CHO cell-derived recombinant preparation","[6]; method of EXAMPLE 2 (2-3), receptor cell line not specified",equivalent to that of the CHO cell-derived recombinant preparation
same,MAP kinase activation,[7],activates
B3,ZAQ receptor activating activity (intracellular calcium level),"[6]; ZAQ receptor expression CHO cells, FLIPR, FIG. 9",induced the intracellular calcium level concentration-dependently
same,I5E receptor activating activity (intracellular calcium level),"[4]; FLIPR, FIG. 10",induced the intracellular calcium level concentration-dependently

# — patent US20040048314A1, “Novel physiologically active peptide and use thereof” (priority 2001, published 2004)
